Test results published in patent US20060292074A1 (SCHERING AKTIENGESELLSCHAFT, published 2006).
Blank lines part the entries; values can stand above or below the binder they belong to.

What was measured:
[1] = biological target: T1, native tomoregulin (TR) on TR-expressing cells (PC3-TR, CHO-TR) (human) (UniProt Q9UIK5); assay: live cell ICELISA on PC3-TR cells; based on total scFv concentration
T1 sequence (looked up): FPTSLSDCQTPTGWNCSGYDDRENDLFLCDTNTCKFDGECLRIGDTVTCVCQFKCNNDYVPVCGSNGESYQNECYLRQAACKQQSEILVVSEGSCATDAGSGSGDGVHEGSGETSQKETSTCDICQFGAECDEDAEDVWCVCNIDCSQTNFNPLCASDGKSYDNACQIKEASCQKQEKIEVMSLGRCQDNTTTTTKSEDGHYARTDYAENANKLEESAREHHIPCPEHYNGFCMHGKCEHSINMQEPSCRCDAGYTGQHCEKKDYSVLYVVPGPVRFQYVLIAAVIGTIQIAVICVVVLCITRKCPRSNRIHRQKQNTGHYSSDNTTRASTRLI

[2] = biological target: T2, recombinant TR protein (extracellular domain of TR, amino acids 1-302, C-terminal 6xHis tag) (human) (UniProt Q9UIK5); assay: ICELISA against direct ELISA on recombinant TR
T2 sequence (chain, glycosylated): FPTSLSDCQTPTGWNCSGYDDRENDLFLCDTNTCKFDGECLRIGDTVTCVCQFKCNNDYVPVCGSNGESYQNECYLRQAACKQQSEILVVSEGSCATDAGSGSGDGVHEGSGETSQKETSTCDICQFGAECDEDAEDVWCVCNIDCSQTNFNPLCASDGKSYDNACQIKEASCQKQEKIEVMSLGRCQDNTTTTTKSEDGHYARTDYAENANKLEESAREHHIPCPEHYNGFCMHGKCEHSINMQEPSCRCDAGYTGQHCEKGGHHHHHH

[3] = biological target: T2, recombinant TR protein (extracellular domain of TR, amino acids 1-302, C-terminal 6xHis tag) (human); assay: ICELISA on recombinant TR, scFv pre-incubated with anti-E-tag antibody; based on total scFv
[4] = biological target: T3, recombinant TR protein (extracellular domain of TR, amino acids 1-302, C-terminal 6xHis tag) (human, UniProt Q9UIK5 41-302, glycosylated); assay: direct ELISA on recombinant TR, monomeric scFv
T3 construct: range 41-302; Secreted from baculovirus-infected High Five cells, purified by Ni chelate and size exclusion chromatography; also called 6×his-tagged recombinant TR; recombinant protein
T3 sequence: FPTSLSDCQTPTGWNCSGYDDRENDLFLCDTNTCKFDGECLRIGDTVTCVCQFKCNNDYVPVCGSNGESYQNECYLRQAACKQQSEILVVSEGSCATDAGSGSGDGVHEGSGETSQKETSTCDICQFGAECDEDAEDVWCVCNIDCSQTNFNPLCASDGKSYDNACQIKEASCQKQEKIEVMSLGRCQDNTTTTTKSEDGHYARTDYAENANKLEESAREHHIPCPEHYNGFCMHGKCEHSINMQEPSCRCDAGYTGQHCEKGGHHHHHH

[5] = biological target: T4, native tomoregulin (TR) on TR-expressing cells (PC3-TR, CHO-TR) (human, UniProt Q9UIK5 41-374); assay: live cell ELISA on PC3-TR cells
T4 construct: whole, on cells; also called native TR; native receptor
T4 sequence (looked up): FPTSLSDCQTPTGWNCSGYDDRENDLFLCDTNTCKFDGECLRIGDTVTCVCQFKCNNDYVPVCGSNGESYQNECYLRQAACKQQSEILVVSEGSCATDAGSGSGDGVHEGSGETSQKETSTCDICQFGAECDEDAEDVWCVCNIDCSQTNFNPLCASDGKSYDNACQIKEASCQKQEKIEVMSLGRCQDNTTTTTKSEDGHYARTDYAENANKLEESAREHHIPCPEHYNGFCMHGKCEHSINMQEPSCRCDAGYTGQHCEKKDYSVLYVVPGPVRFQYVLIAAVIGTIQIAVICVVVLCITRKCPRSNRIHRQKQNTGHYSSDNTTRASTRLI

[6] = biological target: T4, native tomoregulin (TR) on …; assay: FACS on PC3-TR cells, IgG against scFv monomer; not exactly quantified
Procedure: (§1) Cells were detached with Cell Dissociation Buffer (GIBCO Invitrogen, Carlsbad, Calif.) and collected by centrifugation of 3000 rpm at 4° C. for 5 min. 2×10⁵ cells in 100 μl PBS buffer were incubated for 1 h at 4° C. with anti-TR antibodies at a range of concentrations. Excess antibody was washed away with 1 ml PBS followed by centrifugation, and cells were resuspended and incubated for 45 min at 4° C. in PBS 100 μl containing anti-mouse IgG-FITC (10 μg/mL, Vector Labs Inc.) as the second antibody. Excess antibody was washed away with 1 mL PBS and by centrifugation. Cells were resuspended in 200 μL PBS containing 5 μL propidium iodide (1 μg/ml). Fluorescence intensity was measured on a FACS Calibur (Becton Dickinson). Experiments were performed in triplicate.
(§2) Binding of AT-19 IgG to PC3 cells expressing TR was compared to mouse anti-TR IgG 2H8 by FACS. 2H8 is a murine IgG1 monoclonal antibody that reacts with the follistatin domains of the extra-cellular region of human TR protein (Afar et al., Mol. Cancer Ther., 3:921, 2004). It is used throughout as a positive control antibody.

[7] = biological target: T4, native tomoregulin (TR) on …; assay: FACS on PC3-TR cells
Procedure: as §1, §2

EC50 [1]: 8.5 nM
fold improvement of EC50 against monomeric AT-19 scFv [2]: > 20 fold
EC50 [3]: 1.3 nM
B1: AT-19 scFv immune complex (AT-19 scFv dimerized by pre-incubation with mouse anti-E-tag monoclonal IgG) (protein, part only; not given: E-tag and anti-E-tag IgG, not shown: small tags and cut ends)
scFv, part: QVQLVQSGGGLVQPGGSLRLSCAASGFTFSNYAMSWVRQAPGKGLEWVSAISGNGGATYYADSMKGRFTISRDNSKNTLSLQLNSLRVEDTAVYYCAKSLIWGYDRGVDYWGQGTLVTVSAGGGGSGGGGSGGGGSGAPHVILTQPPSASGTPGQRVTISCSGGASNIGTNSVNWYQQLPGTAPKLLLYTNDHRPSGVPDRFSGKSGTSASLAISGLQAEDEGDYYCAAWDDTMNGHVVFGGGTKLTVLG

EC50 [4]: 22 nM
B2: AT-19 scFv (monomeric, monovalent single-chain anti-TR antibody) (scFv)
scFv: QVQLVQSGGGLVQPGGSLRLSCAASGFTFSNYAMSWVRQAPGKGLEWVSAISGNGGATYYADSMKGRFTISRDNSKNTLSLQLNSLRVEDTAVYYCAKSLIWGYDRGVDYWGQGTLVTVSAGGGGSGGGGSGGGGSGAPHVILTQPPSASGTPGQRVTISCSGGASNIGTNSVNWYQQLPGTAPKLLLYTNDHRPSGVPDRFSGKSGTSASLAISGLQAEDEGDYYCAAWDDTMNGHVVFGGGTKLTVLG
notes: also called monovalent AT-19 scFv; monomeric AT-19 scFv; not shown: E-tag from the pZ603 (pCANTAB5E-based) vector

EC50 [5]: 0.44 nM
avidity effect (fold) against the scFv monomer [6]: > 20 fold
EC50 [7]: 0.17 nM
B3: AT-19 IgG (fully human IgG1 format of AT-19) (antibody, V domains shown)
VH: QVQLVQSGGGLVQPGGSLRLSCAASGFTFSNYAMSWVRQAPGKGLEWVSAISGNGGATYYADSMKGRFTISRDNSKNTLSLQLNSLRVEDTAVYYCAKSLIWGYDRGVDYWGQGTLVTVSA
VL: HVILTQPPSASGTPGQRVTISCSGGASNIGTNSVNWYQQLPGTAPKLLLYTNDHRPSGVPDRFSGKSGTSASLAISGLQAEDEGDYYCAAWDDTMNGHVVFGGGTKLTVLG
notes: also called fully human AT-19 IgG
